Target: T1, GST–Ubp3 (UBP3 cloned into pGEX4T, PEN253) (S. cerevisiae, UniProt Q01477 1-912)
T1 sequence (looked up): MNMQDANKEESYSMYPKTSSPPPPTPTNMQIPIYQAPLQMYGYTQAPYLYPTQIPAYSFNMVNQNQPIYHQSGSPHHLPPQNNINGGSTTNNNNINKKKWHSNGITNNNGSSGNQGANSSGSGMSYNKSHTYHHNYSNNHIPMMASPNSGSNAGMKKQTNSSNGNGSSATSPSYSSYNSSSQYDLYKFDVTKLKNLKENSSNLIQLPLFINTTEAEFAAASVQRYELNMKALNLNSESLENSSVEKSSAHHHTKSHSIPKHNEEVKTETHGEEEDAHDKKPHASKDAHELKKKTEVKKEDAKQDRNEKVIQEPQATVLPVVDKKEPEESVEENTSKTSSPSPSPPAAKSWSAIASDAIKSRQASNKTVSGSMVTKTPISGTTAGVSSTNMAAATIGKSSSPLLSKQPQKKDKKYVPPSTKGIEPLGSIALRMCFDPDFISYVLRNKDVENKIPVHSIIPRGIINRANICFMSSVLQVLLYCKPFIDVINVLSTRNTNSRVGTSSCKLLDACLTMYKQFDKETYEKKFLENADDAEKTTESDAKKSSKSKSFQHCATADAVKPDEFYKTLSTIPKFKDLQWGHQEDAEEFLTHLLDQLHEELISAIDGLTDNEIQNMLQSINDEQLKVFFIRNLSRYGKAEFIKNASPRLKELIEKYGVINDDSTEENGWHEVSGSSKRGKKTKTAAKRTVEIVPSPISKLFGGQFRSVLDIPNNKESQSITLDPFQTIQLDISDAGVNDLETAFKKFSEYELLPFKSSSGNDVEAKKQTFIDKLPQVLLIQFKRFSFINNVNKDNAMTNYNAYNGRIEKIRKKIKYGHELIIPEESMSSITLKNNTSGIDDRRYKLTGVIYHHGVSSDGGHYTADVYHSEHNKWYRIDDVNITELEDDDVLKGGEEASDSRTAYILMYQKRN
Assay: pull-down

binding result: binds
B1: His-tagged Hog1 (enzyme, S. cerevisiae, UniProt P32485 1-435, looked up)
chain: MTTNEEFIRTQIFGTVFEITNRYNDLNPVGMGAFGLVCSATDTLTSQPVAIKKIMKPFSTAVLAKRTYRELKLLKHLRHENLICLQDIFLSPLEDIYFVTELQGTDLHRLLQTRPLEKQFVQYFLYQILRGLKYVHSAGVIHRDLKPSNILINENCDLKICDFGLARIQDPQMTGYVSTRYYRAPEIMLTWQKYDVEVDIWSAGCIFAEMIEGKPLFPGKDHVHQFSIITDLLGSPPKDVINTICSENTLKFVTSLPHRDPIPFSERFKTVEPDAVDLLEKMLVFDPKKRITAADALAHPYSAPYHDPTDEPVADAKFDWHFNDADLPVDTWRVMMYSEILDFHKIGGSDGQIDISATFDDQVAAATAAAAQAQAQAQAQVQLNMAAHSHNGAGTTGNDHSDIAGGNKVSDHVAANDTITDYGNQAIQYANEFQQ

Reference: PMC3160652 (The EMBO Journal, 2011)
